Test results from patent US20230310712A1, “IMPLANTABLE CELL CHAMBER DEVICE AND USES THEREOF” (Takeda Pharmaceutical Company Limited, priority 2020, published 2023).

How the values were obtained:
[1] = HPLC analysis of tacrolimus solvent-extracted from electrospun nPET-PBT; format: physicochemical; conditions: HPLC after solvent extraction
Procedure: To reduce inflammation due to implantation trauma, the cell scaffold device can be loaded with tacrolimus (FK506). To assess cell seeding and biomolecule secretion on tacrolimus-treated materials, electrospun nPET-PBT was loaded with tacrolimus by dissolving 0% tacrolimus, 2% tacrolimus, or 4% tacrolimus to the polymer solution prior to electrospinning.
Incorporation of tacrolimus into nPET-PBT was assessed by solvent extracting the tacrolimus from the electrospun materials. The solvent extracted solution was then analyzed by high performance liquid chromatography (HPLC).

[2] = system: vedolizumab/Luc-ARPE19 cells; experiment: Cell growth and vedolizumab secretion on tacrolimus-loaded nPET-PBT; format: cell-based, human; conditions: 200,000 cells/condition, three days, fluorescence imaging
Procedure: Cells were grown on tacrolimus-loaded nPET-PBT discs over three days, after which the surfaces of the nPET-PBT material were visually inspected by fluorescence imaging. […] Cells were further assessed three weeks post-seeding.

[3] = Plasma concentration of adalimumab or ustekinumab in implanted Nude mice (human IgG Fc ELISA); format: in vivo, mouse; conditions: for day plateau was reached: nPET-PBT/PET/nPU cell chamber device; for average plasma concentration plateau: nPET-PBT/PET/nPU cell chamber device with antibody-expressing ARPE19 cells, subcutaneous
Procedure: To assess the ability to deliver biologics into the blood flow and the applicability of the devices to other biologics, secretion of adalimumab or ustekinumab from the nPET-PBT/PET/nPU cell chamber device described in Example 10 was assessed in vivo. The nPET-PBT/PET/nPU cell chamber device was seeded with ARPE19 cells stably expressing adalimumab or ustekinumab (see also Example 8) and subcutaneously implanted in Nude mice. Mice were assessed by blood collection over the course of >100 days to measure the plasma concentration of each antibody over time. Human IgG concentration in plasma was tested by an ELISA assay which detected the human IgG Fc region. […] (Day 1-Day 60: N=5, Day 61-Day 81: N=4, Day 82-92: N=3, Day 93-Day 108: N=2). Similarly, the average ustekinumab plasma concentration reached a plateau of approximately 60-110 μg/mL around Day 20 and maintained a steady-state over 80 days (N=5).

human TNFα = human TNFα (Homo sapiens, UniProt P01375); experiment: Neutralization of human TNFα activity in L-929 cells (CCK-8 viability); format: cell-based; conditions: antibody secreted by ARPE-19 cells in culture medium, human TNFα 1 ng/mL
Chain of human TNFα (P01375 77-233 limits assumed): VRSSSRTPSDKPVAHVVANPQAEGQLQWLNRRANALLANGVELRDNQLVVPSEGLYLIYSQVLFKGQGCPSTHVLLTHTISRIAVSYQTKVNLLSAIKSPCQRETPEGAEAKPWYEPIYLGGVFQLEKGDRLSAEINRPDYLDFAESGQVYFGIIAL
Procedure: Adalimumab is an anti-TNFα antibody. To assay for adalimumab activity in the cell culture medium of adalimumab/ARPE-19 cells, L-929 cells were seeded into a 96 well cell culture plate at the density of 5,000 cells/well in DMEM supplemented with 10% FBS. After 20-hour incubation, the cells were sensitized with Actinomycin D (2 μg/mL) for two hours. Then the cells were incubated with culture medium comprising antibodies secreted by the ARPE-19 cells in the presence of human TNFα (1 ng/mL). After another 20-hour incubation the cells were evaluated for cell viability by a CCK-8 assay to test for neutralization of human TNFα activity.

Compound | drug degradation following loading onto electrospun nPET-PBT [1] | effect on cell proliferation or growth [2] | day plateau was reached [3] [days] | average plasma concentration plateau [3] [µg/mL] | TNFα neutralizing activity (human TNFα)
C=CC[C@@H]1/C=C(\C)C[C@H](C)C[C@H](OC)[C@H]2O[C@@](O)(C(=O)C(=O)N3CCCC[C@H]3C(=O)O[C@H](/C(C)=C/[C@@H]3CC[C@@H](O)[C@H](OC)C3)[C@H](C)[C@@H](O)CC1=O)[C@H](C)C[C@@H]2OC [tacrolimus] | no drug degradation | no detectable effect on cell proliferation or growth |  |  | 
ustekinumab: anti-IL-12/IL-23 antibody |  |  | ~20 | 60 to 110 | 
adalimumab |  |  | ~25 | 50 to 100 | retained TNFα neutralizing activity
